Assay results published in patent US20110262529A1.

target: HLA-A*0201 (human), P04439; experiment: T2 cell HLA-A*0201 stabilisation, affinity category by BL50

Compared with LLCVLAALV (modifications not checked) [pp1a-2755], QLSLPVLQV (modifications not checked) [pp1a-15] is lower in BL50: 100 to 200 µM for the first, under 100 µM for the second.

VLGSLAATV (modifications not checked) [pp1a-4219] and SLQVCVQTV (modifications not checked) [pp1a-1139] cannot be ordered by BL50: under 100 µM for the first, under 100 µM for the second.

First: LLFITGNTL (modifications not checked) [pp1a-3745]
Second: YLSSVLLAL (modifications not checked) [pp1a-1652]
The BL50 of the first is higher: 100 to 200 µM for the first, under 100 µM for the second.

CLDAGINYV (modifications not checked) [pp1a-2187] and TLGVLVPHV (modifications not checked) [pp1a-103] cannot be ordered by BL50: under 100 µM for the first, under 100 µM for the second.

KLNIKLLGI (modifications not checked) [pp1a-3816] and MLSRALKKV (modifications not checked) [pp1a-1288] cannot be ordered by BL50: under 100 µM for the first, under 100 µM for the second.

ALSGVFCGV (modifications not checked) [pp1a-2990] and KLSAGVEFL (modifications not checked) [pp1a-634] cannot be ordered by BL50: under 100 µM for the first, under 100 µM for the second.

First: MLLTFLTSL (modifications not checked) [pp1a-3560]
Second: VLLSVLQQL (modifications not checked) [pp1a-3848]
The BL50 of the first is lower: under 100 µM for the first, 100 to 200 µM for the second.

target: HLA-A*0201 (human), P04439; experiment: not given

In order of falling BL50 (half-maximal binding level):
1. AMWLLLLSI (modifications not checked) [pp1a-2207]  323 µM
2. LLCVLAALV (modifications not checked) [pp1a-2755]  187 µM
3. LLFITGNTL (modifications not checked) [pp1a-3745]  154 µM
4. VLLSVLQQL (modifications not checked) [pp1a-3848]  102 µM
5. QLSLPVLQV (modifications not checked) [pp1a-15]  75.7 µM
6. KLNIKLLGI (modifications not checked) [pp1a-3816]  68.1 µM
7. MLSRALKKV (modifications not checked) [pp1a-1288]  65.1 µM
8. KLSAGVEFL (modifications not checked) [pp1a-634]  59.8 µM
9. VLGSLAATV (modifications not checked) [pp1a-4219]  53.3 µM
10. VLAWLYAAV (modifications not checked) [pp1a-3444]  53 µM
11. MLLTFLTSL (modifications not checked) [pp1a-3560]  47.1 µM
12. FLNRFTTTL (modifications not checked) [pp1a-3459]  39.6 µM
13. FLLPSLATV (modifications not checked) [pp1a-3616]  31.8 µM
14. TLNEDLLEI (modifications not checked) [pp1a-445]  19.2 µM
15. FLITGVFDI (modifications not checked) [pp1a-651]  8.4 µM
16. YLSSVLLAL (modifications not checked) [pp1a-1652]  6.7 µM
17. ALSGVFCGV (modifications not checked) [pp1a-2990]  6.2 µM
18. SLQVCVQTV (modifications not checked) [pp1a-1139]  4.9 µM
19. TLGVLVPHV (modifications not checked) [pp1a-103]  3.1 µM
20. CLDAGINYV (modifications not checked) [pp1a-2187]  3 µM
